Here are results for one molecule from publication PMC3458707 (Chemistry & biology, 2012).

Read-outs that look alike come from different tables or passages of the source.

Holding throughout (experiment): native MS
Assay [1] has as its target T1, Recombinant firefly luciferase (firefly, UniProt P08659 1-550 = luciferase).
In assay [2] the target is T1, Recombinant firefly luciferase. The source holds these as a separate data set.
Assay [3] addresses T2, mitochondrial pig heart malate dehydrogenase (pig, UniProt P00346 25-338).
T2 sequence (looked up): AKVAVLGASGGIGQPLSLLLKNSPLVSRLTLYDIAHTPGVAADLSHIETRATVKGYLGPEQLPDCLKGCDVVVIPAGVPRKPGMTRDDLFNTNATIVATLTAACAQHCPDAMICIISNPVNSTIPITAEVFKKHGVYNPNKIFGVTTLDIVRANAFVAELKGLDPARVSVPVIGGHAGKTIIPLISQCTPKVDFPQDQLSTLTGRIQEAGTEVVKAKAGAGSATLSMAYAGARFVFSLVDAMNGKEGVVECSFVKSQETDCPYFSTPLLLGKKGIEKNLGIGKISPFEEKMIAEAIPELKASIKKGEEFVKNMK

For assay [4], the target named is T3, pig heart citrate synthase (pig, UniProt P00889 28-464).
T3 sequence (looked up): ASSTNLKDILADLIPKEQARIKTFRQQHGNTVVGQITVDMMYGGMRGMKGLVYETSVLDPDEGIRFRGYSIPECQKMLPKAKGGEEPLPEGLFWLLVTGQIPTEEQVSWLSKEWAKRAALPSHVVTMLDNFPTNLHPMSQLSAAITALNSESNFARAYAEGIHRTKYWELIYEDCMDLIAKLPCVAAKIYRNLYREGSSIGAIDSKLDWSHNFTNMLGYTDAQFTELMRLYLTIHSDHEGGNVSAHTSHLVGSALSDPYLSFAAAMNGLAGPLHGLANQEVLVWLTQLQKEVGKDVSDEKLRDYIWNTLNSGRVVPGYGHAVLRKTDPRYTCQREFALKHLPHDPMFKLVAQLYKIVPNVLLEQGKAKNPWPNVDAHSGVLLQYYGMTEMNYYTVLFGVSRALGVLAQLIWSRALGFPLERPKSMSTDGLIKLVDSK

Assay [5] has as its target T1, Recombinant firefly luciferase. This is another data set of the same source.
In assay [6] the target is T2, mitochondrial pig heart malate …. The source holds these as a separate data set.
Assay [7] deals with T3, pig heart citrate synthase. The source holds these as a separate data set.

T1 sequence (P08659 whole entry): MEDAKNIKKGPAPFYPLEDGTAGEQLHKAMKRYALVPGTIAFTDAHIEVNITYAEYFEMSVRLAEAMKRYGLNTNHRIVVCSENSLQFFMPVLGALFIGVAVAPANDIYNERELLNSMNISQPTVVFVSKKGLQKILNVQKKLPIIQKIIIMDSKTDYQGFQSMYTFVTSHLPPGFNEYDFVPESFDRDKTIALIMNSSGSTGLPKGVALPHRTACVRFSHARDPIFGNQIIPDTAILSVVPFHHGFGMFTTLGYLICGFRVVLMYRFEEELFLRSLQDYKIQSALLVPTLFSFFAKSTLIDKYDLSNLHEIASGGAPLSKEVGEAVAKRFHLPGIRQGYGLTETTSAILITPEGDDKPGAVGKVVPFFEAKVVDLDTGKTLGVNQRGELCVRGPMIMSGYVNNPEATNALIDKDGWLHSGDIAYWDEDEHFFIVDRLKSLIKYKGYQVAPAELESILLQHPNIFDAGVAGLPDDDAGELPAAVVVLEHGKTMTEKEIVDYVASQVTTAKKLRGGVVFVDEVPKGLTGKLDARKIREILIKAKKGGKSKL

B1: HSP18.1 from Pisum sativum (pea) (natural protein, UniProt P19243 1-158, looked up)
chain: MSLIPSFFSGRRSNVFDPFSLDVWDPLKDFPFSNSSPSASFPRENPAFVSTRVDWKETPEAHVFKADLPGLKKEEVKVEVEDDRVLQISGERSVEKEDKNDEWHRVERSSGKFLRRFRLPENAKMDKVKASMENGVLTVTVPKEEIKKAEVKSIEISG
With B1, the “stoichiometry N” value in assay [1] is 19.4 ± 0.4 subunits of HSP18.1 per Luc. Besides, the “ratio of complexes [Target]1:[Target]2” value in assay [2] is 1.1 [Target]2 per [Target]1; in assay [3], 1.6 [Target]2 per [Target]1; in assay [4], 2.9 [Target]2 per [Target]1; in assay [5], 2.2 [Target]1 per [Target]2; in assay [6] it was 1.9 [Target]2 per [Target]1; in assay [7], 2 [Target]2 per [Target]1.
